# B1: 101-51-1A5 ATRIMER (designed binder)
# chain: EPPTQKPKKIVNAKKDVVNTKMFEELKSRLDTLAQEVALLKEQQALQTVCLKGTKVHMKCFLAFTQTKTFHEASEDCISRGGTLSTPQTGSENDALYEYLRQSVGNEAEIWLGLNGSALTNTWVDMTGARIAYKNWENGHEPQPRGGFGYFGENCAVLSGAANGKWFDKRCRDQLPYICQFGIV
# B2: 105-20-1B3 ATRIMER (designed binder)
# chain: EPPTQKPKKIVNAKKDVVNTKMFEELKSRLDTLAQEVALLKEQQALQTVCLKGTKVHMKCFLAFTQTKTFHEASEDCISRGGTLSTPQTGSENDALYEYLRQSVGNEAEIWLGLNGSALTNTWVDMTGARIAYKNWETEITAQPDGGFGYFGENCAVLSGAANGKWFDKRCRDQLPYICQFGIV
# notes: not shown: C-terminal tag: Myc/His6 (pANA4) or HA-StrepII (pANA10); A Ser left at the ompA junction may also sit at the N-terminus
# B3: 105-61-4G3 ATRIMER (designed binder)
# chain: EPPTQKPKKIVNAKKDVVNTKMFEELKSRLDTLAQEVALLKEQQALQTVCLKGTKVHMKCFLAFTQTKTFHEASEDCISRGGTLSTPQTGSENDALYEYLRQSVGNEAEIWLGLNGSLRTDTWVDMTGARIAYKNWETEITAQPDGGFGVFGENCAVLSGAANGKWFDKRCRDQLPYICQFGIV
# notes: not shown: C-terminal purification tag: Myc/His6 (pANA4) or HA-StrepII (pANA10)
# B4: 105-59-3B5 ATRIMER (designed binder)
# chain: EPPTQKPKKIVNAKKDVVNTKMFEELKSRLDTLAQEVALLKEQQALQTVCLKGTKVHMKCFLAFTQTKTFHEASEDCISRGGTLSTPQTGSENDALYEYLRQSVGNEAEIWLGLNGSPITDTWVDMTGARIAYKNWETEITAQPDGGFGVFGENCAVLSGAANGKWFDKRCRDQLPYICQFGIV
# notes: as for B3
# B5: 101-113-6C102 ATRIMER (designed binder)
# chain: EPPTQKPKKIVNAKKDVVNTKMFEELKSRLDTLAQEVALLKEQQALQTVCLKGTKVHMKCFLAFTQTKTFHEASEDCISRGGTLSTPQTGSENDALYEYLRQSVGNEAEIWLGLNGSNVTQTWVDMTGARIAYKNWEPPPPHHPQGGFGVFGENCAVLSGAANGKWFDKRCRDQLPYICQFGIV
# modifications: ATRIMER is a homotrimer; one protomer is given.
# notes: as for B3
# B6: A4A ATRIMER (designed binder)
# chain: EPPTQKPKKIVNAKKDVVNTKMFEELKSRLDTLAQEVALLKEQQALQTVCLKGTKVHMKCFLAFTQTKTFHEASEDCISRGGTLSTPQTGSENDALYEYLRQSVGNEAEIWLGLNWTLAKNLWVDMTGARIAYKNWETEITAQPDGGLFGRGENCAVLSGAANGKWFDKRCRDQLPYICQFGIV
# modifications: Forms a homotrimer through the tetranectin coiled coil; one protomer is given.
# notes: also called 001-87.A4A
# B7: C3C ATRIMER (designed binder)
# chain: EPPTQKPKKIVNAKKDVVNTKMFEELKSRLDTLAQEVALLKEQQALQTVCLKGTKVHMKCFLAFTQTKTFHEASEDCISRGGTLSTPQTGSENDALYEYLRQSVGNEAEIWLGLNANRRRTMWVDMTGARIAYKNWETEITAQPDGGMGVWGENCAVLSGAANGKWFDKRCRDQLPYICQFGIV
# modifications: Forms a homotrimer through the tetranectin coiled coil; one protomer is given.
# notes: also called 001-89.C3C
# B8: 105-20-2G5 ATRIMER (designed binder)
# chain: EPPTQKPKKIVNAKKDVVNTKMFEELKSRLDTLAQEVALLKEQQALQTVCLKGTKVHMKCFLAFTQTKTFHEASEDCISRGGTLSTPQTGSENDALYEYLRQSVGNEAEIWLGLNGSRRTDTWVDMTGARIAYKNWETEITAQPDGGWGYFGENCAVLSGAANGKWFDKRCRDQLPYICQFGIV
# notes: not shown: C-terminal tag: His/Myc (pANA4) or HA-StrepII (pANA10)
# B9: 101-54-4B10 ATRIMER (designed binder)
# chain: EPPTQKPKKIVNAKKDVVNTKMFEELKSRLDTLAQEVALLKEQQALQTVCLKGTKVHMKCFLAFTQTKTFHEASEDCISRGGTLSTPQTGSENDALYEYLRQSVGNEAEIWLGLNGSALTNTWVDMTGARIAYKNWERPPLYQPGGGFGYFGENCAVLSGAANGKWFDKRCRDQLPYICQFGIV
# modifications: ATRIMER is a homotrimer; one protomer is given.
# notes: as for B3
# B10: 105-78-2E6 ATRIMER (designed binder)
# chain: EPPTQKPKKIVNAKKDVVNTKMFEELKSRLDTLAQEVALLKEQQALQTVCLKGTKVHMKCFLAFTQTKTFHEASEDCISRGGTLSTPQTGSENDALYEYLRQSVGNEAEIWLGLNGSLRTNTWVDMTGARIAYKNWETEITAQPDGGFGVFGENCAVLSGAANGKWFDKRCRDQLPYICQFGIV
# notes: as for B3
# B11: B9B ATRIMER (designed binder)
# chain: EPPTQKPKKIVNAKKDVVNTKMFEELKSRLDTLAQEVALLKEQQALQTVCLKGTKVHMKCFLAFTQTKTFHEASEDCISRGGTLSTPQTGSENDALYEYLRQSVGNEAEIWLGLNAPPDLGLWVDMTGARIAYKNWETEITAQPDGGWGVWGENCAVLSGAANGKWFDKRCRDQLPYICQFGIV
# modifications: Forms a homotrimer through the tetranectin coiled coil; one protomer is given.
# notes: also called 056-41.B9B
# B12: 105-59-3A5 ATRIMER (designed binder)
# chain: EPPTQKPKKIVNAKKDVVNTKMFEELKSRLDTLAQEVALLKEQQALQTVCLKGTKVHMKCFLAFTQTKTFHEASEDCISRGGTLSTPQTGSENDALYEYLRQSVGNEAEIWLGLNGSLLTNTWVDMTGARIAYKNWETEITAQPDGGFGVFGENCAVLSGAANGKWFDKRCRDQLPYICQFGIV
# notes: as for B2
# B13: 105-20-2F10 ATRIMER (designed binder)
# chain: EPPTQKPKKIVNAKKDVVNTKMFEELKSRLDTLAQEVALLKEQQALQTVCLKGTKVHMKCFLAFTQTKTFHEASEDCISRGGTLSTPQTGSENDALYEYLRQSVGNEAEIWLGLNGSARTDTWVDMTGARIAYKNWETEITAQPDGGFGYFGENCAVLSGAANGKWFDKRCRDQLPYICQFGIV
# modifications: Forms a homotrimer (ATRIMER) through the tetranectin coiled coil; one protomer is given.
# notes: not shown: C-terminal tag
# B14: 105-61-4G5 ATRIMER (designed binder)
# chain: EPPTQKPKKIVNAKKDVVNTKMFEELKSRLDTLAQEVALLKEQQALQTVCLKGTKVHMKCFLAFTQTKTFHEASEDCISRGGTLSTPQTGSENDALYEYLRQSVGNEAEIWLGLNGSPLTNTWVDMTGARIAYKNWETEITAQPDGGFGVFGENCAVLSGAANGKWFDKRCRDQLPYICQFGIV
# notes: as for B2
# B15: 101-51-1A9 ATRIMER (designed binder)
# chain: EPPTQKPKKIVNAKKDVVNTKMFEELKSRLDTLAQEVALLKEQQALQTVCLKGTKVHMKCFLAFTQTKTFHEASEDCISRGGTLSTPQTGSENDALYEYLRQSVGNEAEIWLGLNGSALTNTWVDMTGARIAYKNWEPARQPQPGGGFGYFGENCAVLSGAANGKWFDKRCRDQLPYICQFGIV
# modifications: ATRIMER is a homotrimer; one protomer is given.
# notes: as for B3
# B16: 105-78-2D1 ATRIMER (designed binder)
# chain: EPPTQKPKKIVNAKKDVVNTKMFEELKSRLDTLAQEVALLKEQQALQTVCLKGTKVHMKCFLAFTQTKTFHEASEDCISRGGTLSTPQTGSENDALYEYLRQSVGNEAEIWLGLNGSLRTHTWVDMTGARIAYKNWETEITAQPDGGFGVFGENCAVLSGAANGKWFDKRCRDQLPYICQFGIV
# notes: as for B2
# B17: 105-20-2G12 ATRIMER (designed binder)
# chain: EPPTQKPKKIVNAKKDVVNTKMFEELKSRLDTLAQEVALLKEQQALQTVCLKGTKVHMKCFLAFTQTKTFHEASEDCISRGGTLSTPQTGSENDALYEYLRQSVGNEAEIWLGLNGSPRTNTWVDMTGARIAYKNWETEITAQPDGGFGYFGENCAVLSGAANGKWFDKRCRDQLPYICQFGIV
# notes: as for B2
# Columns and labels:
# [1] = target: T1, recombinant human IL-23R/Fc chimera (R&D Systems) (human, UniProt Q5VWK5 24-353); assay: competition ELISA against IL-23
# T1 construct: bought; also called human IL-23R/Fc fusion protein; rhIL23RFc
# T1 sequence (looked up): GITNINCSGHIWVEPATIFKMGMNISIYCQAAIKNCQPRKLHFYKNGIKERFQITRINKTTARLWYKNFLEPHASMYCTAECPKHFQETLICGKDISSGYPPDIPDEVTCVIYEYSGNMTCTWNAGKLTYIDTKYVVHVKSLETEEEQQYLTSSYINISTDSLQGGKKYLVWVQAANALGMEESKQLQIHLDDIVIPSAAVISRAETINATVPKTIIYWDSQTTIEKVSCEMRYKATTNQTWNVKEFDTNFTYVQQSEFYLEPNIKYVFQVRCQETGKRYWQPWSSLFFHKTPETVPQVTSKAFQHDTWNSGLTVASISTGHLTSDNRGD
# Protocol: Assays were performed generally as follows. Individual wells in Immulon HB2 plates were incubated overnight at 4° C. with 100 μL PBS containing 100 ng of an anti-human IgG Fc (R&D MAB 110 clone 97924). Plates were washed five times with PBS/0.05% Tween 20, and wells were incubated for 1.5 h at RT with 100 μL each of PBS containing 50 ng of recombinant human IL-23R/Fc. […] Competitor was included at a final concentration of 1 μg/mL. After incubation, plates were washed as described and wells were incubated for 40 min at RT with 100 μL each of PBS containing a 1:5000 dilution of streptavidin-HRP conjugate (Pierce catalog no. 21130). After washing, wells were incubated with 100 μL each of TMB (BioFX Lab catalog no. TMBH-1000-0) for up to 30 min at RT. Reactions were stopped with an equal volume of 0.2 M sulfuric acid.
# [2] = target: T1, recombinant human IL-23R/Fc chimera …; assay: SPR (Biacore), captured IL-23R/Fc, ATRIMER
# Protocol: A Biacore 3000 biosensor (GE Healthcare) was used to evaluate the interaction of human IL-23R and receptor binders. Immobilization of an anti-human IgG Fc antibody (GE Heathcare) to the CM5 chip (Biacore) was performed using standard amine coupling chemistry, and this modified surface was used to capture a recombinant human IL-23R/Fc fusion protein (R&D Systems). A low-density receptor surface, less than 200 RU, was used for all of the analyses. ATRIMER™ polypeptide complex dilutions (1-500 nM) were injected over the IL-23R surface at 30 μl/min and kinetic constants were derived from the sensorgram data using the Biaevaluation software (version 3.1, GE Healthcare). Data collection was 3 minutes for the association and 5 minutes for dissociation. The anti-human IgG surface was regenerated with a 30 s pulse of 3M magnesium chloride. All sensorgrams were double-referenced against an activated and blocked flow-cell as well as buffer injections.
binder,measurement,setting,value
B1,Ratio IC50 to 056-53.H4E IC50,[1],1 ratio
same,Ka,[2],1.71e+09 M⁻¹
same,Kd,[2],0.584 nM
same,koff,[2],0.000289 s⁻¹
same,kon,[2],495000 M⁻¹ s⁻¹
B2,Ratio IC50 to 056-53.H4E IC50,[1],1.2 ratio
B3,Ratio IC50 to 056-53.H4E IC50,[1],0.8 ratio
B4,Ratio IC50 to 056-53.H4E IC50,[1],0.8 ratio
B5,Ratio IC50 to 056-53.H4E IC50,[1],2 ratio
same,Ka,[2],9.62e+08 M⁻¹
same,Kd,[2],1.04 nM
same,koff,[2],0.000283 s⁻¹
same,kon,[2],271000 M⁻¹ s⁻¹
B6,Ka,[2],1.24e+08 M⁻¹
same,Kd,[2],8.08 nM
same,koff,[2],0.000409 s⁻¹
same,kon,[2],50600 M⁻¹ s⁻¹
B7,Ka,[2],1.2e+08 M⁻¹
same,Kd,[2],8.34 nM
same,koff,[2],0.000483 s⁻¹
same,kon,[2],57900 M⁻¹ s⁻¹
B8,Ratio IC50 to 056-53.H4E IC50,[1],5.3 ratio
B9,Ratio IC50 to 056-53.H4E IC50,[1],1.4 ratio
same,Ka,[2],1.11e+09 M⁻¹
same,Kd,[2],0.897 nM
same,koff,[2],0.000429 s⁻¹
same,kon,[2],479000 M⁻¹ s⁻¹
B10,Ratio IC50 to 056-53.H4E IC50,[1],1 ratio
B11,Ka,[2],1.94e+08 M⁻¹
same,Kd,[2],5.15 nM
same,koff,[2],0.000478 s⁻¹
same,kon,[2],92800 M⁻¹ s⁻¹
B12,Ratio IC50 to 056-53.H4E IC50,[1],1.2 ratio
B13,Ratio IC50 to 056-53.H4E IC50,[1],4.2 ratio
B14,Ratio IC50 to 056-53.H4E IC50,[1],1 ratio
B15,Ratio IC50 to 056-53.H4E IC50,[1],2.2 ratio
same,Ka,[2],1.05e+09 M⁻¹
same,Kd,[2],0.955 nM
same,koff,[2],0.000329 s⁻¹
same,kon,[2],345000 M⁻¹ s⁻¹
B16,Ratio IC50 to 056-53.H4E IC50,[1],1.3 ratio
B17,Ratio IC50 to 056-53.H4E IC50,[1],1 ratio

# From patent US20110086770A1 (ANAPHORE, published 2011)
